Measured values: US20250197483A1

Target: HIV-1 Env of the 208-virus panel (Env-pseudoviruses)
Assay: cell-based or functional assay

| Binder | neutralization of Env-pseudoviruses on TZM-bl cells, share of the panel at IC80 less than 1 µg/ml (% of the 208-virus panel) | neutralization of Env-pseudoviruses on TZM-bl cells, share of the panel at IC80 <1 µg/ml (% of 208 viruses) | neutralization of Env-pseudoviruses on TZM-bl cells, share of the panel at IC80<1 µg/ml (% of viruses (208-virus panel)) |
| --- | --- | --- | --- |
| VRC07-523LS.v14 (antibody, V domains shown) VH: QVRLSQSGGQMKKPGDSMRISCDASGYEFINCPINWIRLAPGKRPEWMGWMKPRFGAVSYARQLQGRVTMTRQLSQDPDDPDWGTAFLELRSLTSDDTAVYFCTRGKYCTARDYYNWDFEHWGQGTPVTVSS VL: LTQSPGTLSLSPGETAIISCDTSQYGSLAWYQQRPGQAPRLVIYSGSTRAAGIPDRFSGSRWGPDYNLTISNLESGDFGVYYCQQYEFFGQGTKVQVDI | 92 |  |  |
| VRC07-523LS.v32 (antibody, V domains shown) VH: QVRLSQSGGQMKKPGDSMRISCSASGYEFINCPINWIRLAPGKRPEWMGWMKPRFGAVSYARQLQGRVTMTRQLSQDPDDPDWGTAFLELRSLTSDDTAVYFCTRGSYCTARDYYNWDFEHWGQGTPVTVSS VL: LTQSPGTLSLSPGETAIISCSTSQYGSLAWYQQRPGQAPRLVIYSGSTRAAGIPDRFSGSRWGPDYNLTISNLESGDFGVYYCQQYEFFGQGTKVQVDI | 92 |  |  |
| N6LS.C1 (antibody, V domains shown) VH: RAHLVQSGTAMKKPGASVRVSCQTSGYTFTAHILFWFRQAPGRGLEWVGWIKPQYGAVNFGGGFRDRVTLTRQLSQDPDDPDWGIAYMDIDGLKPDDTAVYYCARDRSYGDSSWALDAWGQGTTVVVSA VL: YIHVTQSPSSLSVSIGDDVTINCQTSQGVGSDLHWYQHKPGRAPKLLIHHTSSVEDGVPSRFSGSGFHTSFNLTISDLQADDIATYYCQVLQFFGRGSRLHIKR |  | > 73 | 73 |
| N6LS.C30 (antibody, V domains shown) VH: RAHLVQSGTAMKEPGASVRVSCQTSGYTFTAHILFWFRQAPGRGLEWVGWIKPQYGAVNFGGGFRDRVTLTRQLSQDPDDPDWGIAYMDIRGLKPDDTAVYYCARDRSYGDSSWALDAWGQGTTVVVSA VL: YIHVTQSPSSLSVSIGDEVTINCQTSQGVGSDLHWYQHKPGRAPKLLIHHTSSVEDGVPSRFSGSGFHTSFNLTISDLQADDIATYYCQVLQFFGRGSRLHIKR |  | > 73 | 77 |
